# Where a chain is given by its changes, count along the chain named. Numbered stars: 1 amine (or outer) side, 2 acyl side, 3 side chain; on linkers, the order of the positions; unused ones are H or OH. Bridge positions count the residues as written; N and C are the ends. Square brackets hold non-standard residues; d marks the D form. Ends that are not written are not given here. * marks the point of attachment. thioacetal = thioacetal linkage between two cysteines (intrachain bond at the bracketed Cys); C20 diacid = O=C(O)CCCCCCCCCCCCCCCCCCC(=O)*; γGlu = O=C(O)[C@H](CCC(=O)[*:2])N[*:1]; 4Pal = N[C@@H](Cc1ccncc1)C(=O)O; βAla = NCCC(=O)O
# T1: human NPRA (human, UniProt P16066 33-1061)
# T1 sequence (looked up): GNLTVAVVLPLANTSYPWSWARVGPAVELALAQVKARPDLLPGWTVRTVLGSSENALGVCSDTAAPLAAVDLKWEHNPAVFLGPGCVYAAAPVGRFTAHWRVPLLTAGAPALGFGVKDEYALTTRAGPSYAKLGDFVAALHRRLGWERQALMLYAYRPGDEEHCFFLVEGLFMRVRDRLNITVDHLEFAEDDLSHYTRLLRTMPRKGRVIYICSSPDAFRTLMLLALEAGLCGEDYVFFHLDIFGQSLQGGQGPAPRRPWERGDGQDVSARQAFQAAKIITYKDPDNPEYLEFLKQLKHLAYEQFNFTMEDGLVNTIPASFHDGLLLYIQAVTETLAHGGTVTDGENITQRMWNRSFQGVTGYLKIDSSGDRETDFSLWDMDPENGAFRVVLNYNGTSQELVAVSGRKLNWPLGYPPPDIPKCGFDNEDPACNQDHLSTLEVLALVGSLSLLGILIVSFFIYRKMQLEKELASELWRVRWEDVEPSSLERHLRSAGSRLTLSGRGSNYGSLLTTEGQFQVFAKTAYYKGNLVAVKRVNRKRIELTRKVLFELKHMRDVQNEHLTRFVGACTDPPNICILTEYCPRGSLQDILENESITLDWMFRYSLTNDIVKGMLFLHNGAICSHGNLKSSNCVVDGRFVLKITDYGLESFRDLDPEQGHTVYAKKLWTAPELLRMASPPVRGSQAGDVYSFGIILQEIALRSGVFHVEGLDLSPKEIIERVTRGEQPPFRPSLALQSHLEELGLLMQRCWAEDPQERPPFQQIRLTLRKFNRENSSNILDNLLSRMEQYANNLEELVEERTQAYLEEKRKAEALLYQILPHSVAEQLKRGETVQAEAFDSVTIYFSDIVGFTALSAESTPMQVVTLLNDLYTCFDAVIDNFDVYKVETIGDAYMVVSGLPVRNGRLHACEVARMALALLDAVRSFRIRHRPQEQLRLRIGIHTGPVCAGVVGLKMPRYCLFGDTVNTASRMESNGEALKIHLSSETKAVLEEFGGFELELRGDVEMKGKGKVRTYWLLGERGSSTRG
# T2: rat NPRA (rat, UniProt P18910 29-1057)
# T2 sequence (looked up): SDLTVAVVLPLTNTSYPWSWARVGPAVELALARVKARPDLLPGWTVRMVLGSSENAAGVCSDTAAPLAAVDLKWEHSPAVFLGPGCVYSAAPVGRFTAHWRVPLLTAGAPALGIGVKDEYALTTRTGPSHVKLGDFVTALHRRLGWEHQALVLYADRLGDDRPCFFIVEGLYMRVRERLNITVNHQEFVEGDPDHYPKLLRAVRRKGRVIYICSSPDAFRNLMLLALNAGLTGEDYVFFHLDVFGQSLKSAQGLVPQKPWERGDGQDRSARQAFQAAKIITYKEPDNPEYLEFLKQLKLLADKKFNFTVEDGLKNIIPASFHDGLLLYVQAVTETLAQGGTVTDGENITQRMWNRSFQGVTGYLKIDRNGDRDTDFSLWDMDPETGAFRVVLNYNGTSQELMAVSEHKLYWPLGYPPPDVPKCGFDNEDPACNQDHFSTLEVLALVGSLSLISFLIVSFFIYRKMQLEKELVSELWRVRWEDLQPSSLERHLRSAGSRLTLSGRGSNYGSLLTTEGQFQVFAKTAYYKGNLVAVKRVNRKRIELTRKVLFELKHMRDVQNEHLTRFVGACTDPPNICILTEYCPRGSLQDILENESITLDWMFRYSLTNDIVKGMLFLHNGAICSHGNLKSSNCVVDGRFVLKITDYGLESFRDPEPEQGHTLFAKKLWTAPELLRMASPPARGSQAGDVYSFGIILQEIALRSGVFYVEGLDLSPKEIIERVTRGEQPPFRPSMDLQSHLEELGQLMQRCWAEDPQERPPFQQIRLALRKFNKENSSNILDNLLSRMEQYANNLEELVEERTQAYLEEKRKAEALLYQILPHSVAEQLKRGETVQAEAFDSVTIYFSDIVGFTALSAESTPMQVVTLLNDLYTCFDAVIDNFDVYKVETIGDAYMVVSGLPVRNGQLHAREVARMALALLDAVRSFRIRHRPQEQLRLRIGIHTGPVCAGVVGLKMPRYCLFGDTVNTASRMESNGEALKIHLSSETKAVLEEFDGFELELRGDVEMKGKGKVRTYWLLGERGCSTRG
# B1: Example 6 (peptide)
# peptide: EKXRSSCFGGKIDRIGHYSGLGCPSFRHGSPSSGAPPPS
# modifications: HOOC-(CH2)18-CO-(γGlu)-EKEKEKG-PEG24-EK-βAla-RSS[CFGGKIDRIGHYSGLGC]PSFRHGSPSSGAPPPS-NH2; thioacetal linkage between the bracketed Cys
# B2: Example 7 (peptide)
# peptide: B1 peptide with Y18Q
# modifications: HOOC-(CH2)18-CO-(γGlu)-EKEKEKG-PEG24-EK-βAla-RSS[CFGGKIDRIGHQSGLGC]PSFRHGSPSSGAPPPS-NH2; thioacetal linkage between the bracketed Cys
# B3: Example 98 (peptide)
# peptide: B1 peptide with K11R
# modifications: HOOC-(CH2)18-CO-(γGlu)-EKEKEKG-(AEEA)6-EK-βAla-RSS[CFGGRIDRIGHYSGLGC]PSFRHGSPSSGAPPPS-NH2; thioacetal linkage between the bracketed Cys
# B4: Example 86 (peptide)
# peptide: SXRRSSCFGGRIDRIGHQSGLGCPSFRHGGKSSGAPPPS
# modifications: HOOC-(CH2)18-CO-(γGlu)-EKEKEKG-(AEEA)6-S-4Pal-RRSS[CFGGRIDRIGHQSGLGC]PSFRHGGKSSGAPPPS-NH2; thioacetal linkage between the bracketed Cys
# B5: Example 96 (peptide)
# peptide: B4 peptide with Q18Y, G30S, K31P
# modifications: HOOC-(CH2)18-CO-(γGlu)-EKEKEKG-(AEEA)6-S-4Pal-RRSS[CFGGRIDRIGHYSGLGC]PSFRHGSPSSGAPPPS-NH2; thioacetal linkage between the bracketed Cys
# B6: Example 87 (peptide)
# peptide: B4 peptide with G10K
# modifications: HOOC-(CH2)18-CO-(γGlu)-EKEKEKG-(AEEA)8-S-4Pal-RRSS[CFGKRIDRIGHQSGLGC]PSFRHGGKSSGAPPPS-NH2; thioacetal linkage between the bracketed Cys
# B7: Example 91 (peptide)
# peptide: B4 peptide with Q18Y
# modifications: HOOC-(CH2)18-CO-(γGlu)-EKEKEKG-(AEEA)8-S-4Pal-RRSS[CFGGRIDRIGHYSGLGC]PSFRHGGKSSGAPPPS-NH2; thioacetal linkage between the bracketed Cys
# B8: Example 95 (peptide)
# peptide: B4 peptide with Q18Y
# modifications: HOOC-(CH2)18-CO-(γGlu)-EKEKEKG-PEG24-S-4Pal-RRSS[CFGGRIDRIGHYSGLGC]PSFRHGGKSSGAPPPS-NH2; thioacetal linkage between the bracketed Cys
# B9: Example 92 (peptide)
# peptide: B4 peptide with Q18Y
# modifications: HOOC-(CH2)18-CO-(γGlu)-EKEKEKG-(AEEA)6-S-4Pal-RRSS[CFGGRIDRIGHYSGLGC]PSFRHGGKSSGAPPPS-NH2; thioacetal linkage between the bracketed Cys
# B10: Example 88 (peptide)
# peptide: B4 peptide with S1E, X2K, R3X, G10K
# modifications: HOOC-(CH2)18-CO-(γGlu)-EKEKEKG-(AEEA)4-EK-βAla-RSS[CFGKRIDRIGHQSGLGC]PSFRHGGKSSGAPPPS-NH2; thioacetal linkage between the bracketed Cys
# B11: Example 89 (peptide)
# peptide: B4 peptide with S1E, X2K, R3X, G10K
# modifications: HOOC-(CH2)18-CO-(γGlu)-EKEKEKG-(AEEA)6-EK-βAla-RSS[CFGKRIDRIGHQSGLGC]PSFRHGGKSSGAPPPS-NH2; thioacetal linkage between the bracketed Cys
# B12: Example 11 (peptide)
# peptide: XEKEKEKGSXRRSSCFGGRIDRIGAQSGLGCNSFRY
# modifications: HOOC-(CH2)18-CO-(γGlu)-EKEKEKGS-4Pal-RRSS[CFGGRIDRIGAQSGLGC]NSFRY-NH2; disulfide linkage between the bracketed Cys
# B13: Example 9 (peptide)
# peptide: {C20 diacid}-[γGlu]EKEKEKGSLRRSSCFGGRIDRIGAQSGLGCNSFR[4Pal]-NH2
# modifications: disulfide 15-31
# SMILES: CC[C@H](C)[C@@H]1NC(=O)[C@H](CCCNC(=N)N)NC(=O)[C@H](CC(=O)O)NC(=O)[C@H]([C@@H](C)CC)NC(=O)[C@H](CCCNC(=N)N)NC(=O)CNC(=O)CNC(=O)[C@H](Cc2ccccc2)NC(=O)[C@@H](NC(=O)[C@H](CO)NC(=O)[C@H](CO)NC(=O)[C@H](CCCNC(=N)N)NC(=O)[C@H](CCCNC(=N)N)NC(=O)[C@H](CC(C)C)NC(=O)[C@H](CO)NC(=O)CNC(=O)[C@H](CCCCN)NC(=O)[C@H](CCC(=O)O)NC(=O)[C@H](CCCCN)NC(=O)[C@H](CCC(=O)O)NC(=O)[C@H](CCCCN)NC(=O)[C@H](CCC(=O)O)NC(=O)CC[C@H](NC(=O)CCCCCCCCCCCCCCCCCCC(=O)O)C(=O)O)CSSC[C@@H](C(=O)N[C@@H](CC(N)=O)C(=O)N[C@@H](CO)C(=O)N[C@@H](Cc2ccccc2)C(=O)N[C@@H](CCCNC(=N)N)C(=O)N[C@@H](Cc2ccncc2)C(N)=O)NC(=O)CNC(=O)[C@H](CC(C)C)NC(=O)CNC(=O)[C@H](CO)NC(=O)[C@H](CCC(N)=O)NC(=O)[C@H](C)NC(=O)CNC1=O
# B14: Example 84 (peptide)
# peptide: SXRRSSCFGGRIDRIGHQSGLGCPSFRHGGPPSXKPPPK
# modifications: HOOC-(CH2)18-CO-(γGlu)-EKEKEKG-PEG24-S-4Pal-RRSS[CFGGRIDRIGHQSGLGC]PSFRHGGPPS-Aib-KPPPK-NH2; thioacetal linkage between the bracketed Cys
# B15: Example 10 (peptide)
# peptide: {C20 diacid}-[γGlu]EKEKEKGSLRRSSCFGGRIDRIGA[4Pal]SGLGCNSFRY-NH2
# modifications: disulfide 15-31
# SMILES: CC[C@H](C)[C@@H]1NC(=O)[C@H](CCCNC(=N)N)NC(=O)[C@H](CC(=O)O)NC(=O)[C@H]([C@@H](C)CC)NC(=O)[C@H](CCCNC(=N)N)NC(=O)CNC(=O)CNC(=O)[C@H](Cc2ccccc2)NC(=O)[C@@H](NC(=O)[C@H](CO)NC(=O)[C@H](CO)NC(=O)[C@H](CCCNC(=N)N)NC(=O)[C@H](CCCNC(=N)N)NC(=O)[C@H](CC(C)C)NC(=O)[C@H](CO)NC(=O)CNC(=O)[C@H](CCCCN)NC(=O)[C@H](CCC(=O)O)NC(=O)[C@H](CCCCN)NC(=O)[C@H](CCC(=O)O)NC(=O)[C@H](CCCCN)NC(=O)[C@H](CCC(=O)O)NC(=O)CC[C@H](NC(=O)CCCCCCCCCCCCCCCCCCC(=O)O)C(=O)O)CSSC[C@@H](C(=O)N[C@@H](CC(N)=O)C(=O)N[C@@H](CO)C(=O)N[C@@H](Cc2ccccc2)C(=O)N[C@@H](CCCNC(=N)N)C(=O)N[C@@H](Cc2ccc(O)cc2)C(N)=O)NC(=O)CNC(=O)[C@H](CC(C)C)NC(=O)CNC(=O)[C@H](CO)NC(=O)[C@H](Cc2ccncc2)NC(=O)[C@H](C)NC(=O)CNC1=O
# Molecular target: T1, human NPRA
# Test: cell-based or functional assay
Binder,"cGMP Assay (EC50, pM) w/BSA","cGMP Assay (EC50, pM) w/Casein"
B1,33300 pM,1530 pM
B2,69600 pM,5670 pM
B3,,1840 pM
B4,25200 pM,1020 pM
B5,12700 pM,720 pM
B6,3380 pM,621 pM
B7,13900 pM,1000 pM
B8,7030 pM,771 pM
B9,10100 pM,772 pM
B10,16300 pM,520 pM
B11,10800 pM,806 pM
EK[βAla]RSSCFGKRIDRIGHQSGLGCPSFRHGGKSSGAPPPS-NH2 (bridge 7-23 via thioacetal; not fully specified (N-terminus)) [Example 90],19700 pM,452 pM
B12,24400 pM,1020 pM
B13,100000 pM,1870 pM
B14,9730 pM,1010 pM
B15,64200 pM,1310 pM

# Molecular target: T2, rat NPRA
# Test: cell-based or functional assay
Binder,"cGMP Assay (EC50, pM) w/BSA","cGMP Assay (EC50, pM) w/Casein"
B1,596000 pM,30500 pM
B2,1.17e+06 pM,184000 pM
B3,,17900 pM
B4,868000 pM,17900 pM
B5,401000 pM,12200 pM
B6,463000 pM,8870 pM
B7,549000 pM,16200 pM
B8,322000 pM,12300 pM
B9,290000 pM,12400 pM
B10,1.05e+06 pM,11400 pM
B11,819000 pM,13800 pM
EK[βAla]RSSCFGKRIDRIGHQSGLGCPSFRHGGKSSGAPPPS-NH2 (bridge 7-23 via thioacetal; not fully specified (N-terminus)) [Example 90],734000 pM,13200 pM
B12,24700 pM,242 pM
B13,46700 pM,509 pM
B14,547000 pM,24600 pM
B15,88400 pM,501 pM
